Laboratory results reported in the Immune Epitope Database (IEDB).
Values belong to the sequence of their own block, whether it stands above or below them.

Columns and labels:
HLA-A*11:01 [1] = test: IEDB peptide-MHC binding, purified MHC/competitive/fluorescence; ≥ and ≤ were set here for values at or beyond the usual limits of such assays; conditions: source organism: Rattus norvegicus
HLA-B*58:01 [2] = test: as above; conditions: source organism: Rattus norvegicus
HLA-B*53:01 [3] = test: as above; conditions: source organism: Rattus norvegicus
HLA-B*07:02 [4] = test: as above; conditions: source organism: Rattus norvegicus
HLA-A*03:01 [5] = test: as above; conditions: source organism: Rattus norvegicus
HLA-A*25:01 [6] = test: as above; conditions: source organism: Rattus norvegicus
HLA-B*44:03 = test: as above; conditions: source organism: Rattus norvegicus
HLA-A*29:02 = test: as above; conditions: source organism: Rattus norvegicus
HLA-A*24:02 = test: as above; conditions: source organism: Rattus norvegicus
HLA-A*31:01 = test: as above; conditions: source organism: Rattus norvegicus
HLA-A*02:01 = test: as above; conditions: source organism: Rattus norvegicus
HLA-B*51:01 [7] = test: as above; conditions: source organism: Rattus norvegicus
HLA-B*40:02 = test: as above; conditions: source organism: Rattus norvegicus
HLA-A*01:01 [8] = test: as above; conditions: source organism: Rattus norvegicus
HLA-B*18:01 [9] = test: as above; conditions: source organism: Rattus norvegicus
HLA-B*37:01 = test: as above; conditions: source organism: Rattus norvegicus
HLA-B*08:01 [10] = test: as above; conditions: source organism: Rattus norvegicus
HLA-B*35:01 = test: as above; conditions: source organism: Rattus norvegicus
HLA-A*68:02 = test: as above; conditions: source organism: Rattus norvegicus
HLA-B*14:02 [11] = test: as above; conditions: source organism: Rattus norvegicus
HLA-A*11:01 [12] = test: IEDB peptide-MHC binding, purified MHC/competitive/fluorescence; filed as Kd, often an IC50 or EC50 that approximates it; ≥ and ≤ were set here for values at or beyond the usual limits of such assays; conditions: source organism: Entamoeba dispar SAW760
HLA-B*58:01 [13] = test: as above; conditions: source organism: Entamoeba dispar SAW760
HLA-B*53:01 [14] = test: as above; conditions: source organism: Entamoeba dispar SAW760
HLA-B*07:02 [15] = test: as above; conditions: source organism: Entamoeba dispar SAW760
HLA-A*30:01 = test: as above; conditions: source organism: Entamoeba dispar SAW760
HLA-B*27:05 = test: as above; conditions: source organism: Entamoeba dispar SAW760
HLA-B*44:02 = test: as above; conditions: source organism: Entamoeba dispar SAW760
HLA-A*01:01 [16] = test: as above; conditions: source organism: Entamoeba dispar SAW760
HLA-A*66:01 = test: as above; conditions: source organism: Entamoeba dispar SAW760
HLA-B*08:01 [17] = test: as above; conditions: source organism: Entamoeba dispar SAW760
HLA-A*30:02 = test: as above; conditions: source organism: Entamoeba dispar SAW760
HLA-B*14:02 [18] = test: as above; conditions: source organism: Entamoeba dispar SAW760
HLA-C*04:01 = test: IEDB peptide-MHC binding, purified MHC/direct/fluorescence; filed as Kd, often an IC50 or EC50 that approximates it; ≥ and ≤ were set here for values at or beyond the usual limits of such assays; conditions: source organism: Campylobacter jejuni
HLA-A*02:03 = test: as above; conditions: source organism: Campylobacter jejuni
HLA-B*15:01 = test: as above; conditions: source organism: Campylobacter jejuni
HLA-A*03:01 [19] = test: as above; conditions: source organism: Campylobacter jejuni
HLA-A*25:01 [20] = test: as above; conditions: source organism: Campylobacter jejuni
HLA-A*02:11 = test: as above; conditions: source organism: Campylobacter jejuni
HLA-B*27:03 = test: as above; conditions: source organism: Campylobacter jejuni
HLA-A*02:12 = test: as above; conditions: source organism: Campylobacter jejuni
HLA-B*51:01 [21] = test: as above; conditions: source organism: Campylobacter jejuni
HLA-A*80:01 = test: as above; conditions: source organism: Campylobacter jejuni
HLA-B*39:01 = test: as above; conditions: source organism: Campylobacter jejuni
HLA-B*18:01 [22] = test: as above; conditions: source organism: Campylobacter jejuni
HLA-A*26:01 = test: as above; conditions: source organism: Campylobacter jejuni
HLA-A*02:19 = test: as above; conditions: source organism: Campylobacter jejuni
HLA-B*46:01 = test: as above; conditions: source organism: Campylobacter jejuni
HLA-B*57:01 = test: as above; conditions: source organism: Campylobacter jejuni

- IC50 (HLA-A*11:01 [1]): ≥ 20 µM
- IC50 (HLA-B*58:01 [2]): ≥ 20 µM
- IC50 (HLA-B*53:01 [3]): ≥ 20 µM
- IC50 (HLA-B*07:02 [4]): ≥ 20 µM
- IC50 (HLA-A*03:01 [5]): ≥ 20 µM
- IC50 (HLA-A*25:01 [6]): ≥ 20 µM
- IC50 (HLA-B*44:03): ≥ 20 µM
- IC50 (HLA-A*29:02): 17.8 µM
- IC50 (HLA-A*24:02): 6.08 µM
- IC50 (HLA-A*31:01): ≥ 20 µM
- IC50 (HLA-A*02:01): 0.0187 µM
- IC50 (HLA-B*51:01 [7]): ≥ 20 µM
- IC50 (HLA-B*40:02): ≥ 20 µM
- IC50 (HLA-A*01:01 [8]): ≥ 20 µM
- IC50 (HLA-B*18:01 [9]): ≥ 20 µM
- IC50 (HLA-B*37:01): ≥ 20 µM
- IC50 (HLA-B*08:01 [10]): ≥ 20 µM
- IC50 (HLA-B*35:01): ≥ 20 µM
- IC50 (HLA-A*68:02): 0.914 µM
- IC50 (HLA-B*14:02 [11]): ≥ 20 µM
Sequence: SLLERGQQLGV

Sequence: SQYDPKELL
- Kd (HLA-A*11:01 [12]): ≥ 5 µM
- Kd (HLA-B*58:01 [13]): ≥ 5 µM
- Kd (HLA-B*53:01 [14]): ≥ 5 µM
- Kd (HLA-B*07:02 [15]): ≥ 5 µM
- Kd (HLA-A*30:01): ≥ 5 µM
- Kd (HLA-B*27:05): ≥ 5 µM
- Kd (HLA-B*44:02): ≥ 5 µM
- Kd (HLA-A*01:01 [16]): ≥ 5 µM
- Kd (HLA-A*66:01): ≥ 5 µM
- Kd (HLA-B*08:01 [17]): ≥ 5 µM
- Kd (HLA-A*30:02): ≥ 5 µM
- Kd (HLA-B*14:02 [18]): ≥ 5 µM

Sequence: YWDQVTFFY
- Kd (HLA-C*04:01): ≥ 20 µM
- Kd (HLA-A*02:03): ≥ 20 µM
- Kd (HLA-B*15:01): ≥ 20 µM
- Kd (HLA-A*03:01 [19]): ≥ 20 µM
- Kd (HLA-A*25:01 [20]): ≥ 20 µM
- Kd (HLA-A*02:11): ≥ 20 µM
- Kd (HLA-B*27:03): ≥ 20 µM
- Kd (HLA-A*02:12): ≥ 20 µM
- Kd (HLA-B*51:01 [21]): ≥ 20 µM
- Kd (HLA-A*80:01): 0.056 µM
- Kd (HLA-B*39:01): ≥ 20 µM
- Kd (HLA-B*18:01 [22]): ≥ 20 µM
- Kd (HLA-A*26:01): ≥ 20 µM
- Kd (HLA-A*02:19): ≥ 20 µM
- Kd (HLA-B*46:01): ≥ 20 µM
- Kd (HLA-B*57:01): ≥ 20 µM
